Two molecules from PMC9126950, “SARS-CoV-2 detection using a nanobody-functionalized voltammetric device” (Communications Medicine, 2022) can be followed below.

What is called Kd is a measure of binding affinity in units of concentration.

Assay [1] has as its target T1, SARS-CoV-2 spike receptor binding domain (RBD), recombinant (SARS-CoV-2, UniProt P0DTC2 319-541).
T1 construct: also called SARS-CoV-2 RBD; Spike RBD
Nature of the assay: SPR. As to conditions: both partners purified.

Assay [2] has as its target T2, SARS-CoV-2 spike receptor binding domain (RBD), recombinant (SARS-CoV-2, UniProt P0DTC2).
T2 construct: also called SARS-CoV-2 RBD; Spike RBD
Description: electrochemical titration (differential pulse voltammetry). As to conditions: both partners purified.

B1: VHH-72-C13 (VHH)
VHH: QVQLQESGGGLVCAGGSLRLSCAASGRTFSEYAMGWFRQAPGKEREFVATISWSGGSTYYTDSVKGRFTISRDNAKNTVYLQMNSLKPDDTAVYYCAAAGLGTVVSEWDYDYDYWGQGTQVTVSS
notes: also called VHH-72-13C; VHH-C13
Regarding B1, in assay [1], the Kd was 12.1 nM.

B2: VHH-72 (VHH)
VHH: QVQLQESGGGLVQAGGSLRLSCAASGRTFSEYAMGWFRQAPGKEREFVATISWSGGSTYYTDSVKGRFTISRDNAKNTVYLQMNSLKPDDTAVYYCAAAGLGTVVSEWDYDYDYWGQGTQVTVSS
As for B2, the Kd in assay [2] was 78 nM.
